Reference: patent publication US20120121596A1 (published 2012)

Legend:
HER4-ECD-Fc = target: T1, HER4-ECD-Fc (human, UniProt Q15303 26-651, limits assumed); test: direct phage ELISA, proteins coated at 2 µg/ml, phage-Fab supernatant, OD450;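 note: specificity test of dual-activity clones, with binding assessed across an antigen panel to check whether each recognises only its cognate target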
T1 construct: extracellular domain
T1 sequence (looked up): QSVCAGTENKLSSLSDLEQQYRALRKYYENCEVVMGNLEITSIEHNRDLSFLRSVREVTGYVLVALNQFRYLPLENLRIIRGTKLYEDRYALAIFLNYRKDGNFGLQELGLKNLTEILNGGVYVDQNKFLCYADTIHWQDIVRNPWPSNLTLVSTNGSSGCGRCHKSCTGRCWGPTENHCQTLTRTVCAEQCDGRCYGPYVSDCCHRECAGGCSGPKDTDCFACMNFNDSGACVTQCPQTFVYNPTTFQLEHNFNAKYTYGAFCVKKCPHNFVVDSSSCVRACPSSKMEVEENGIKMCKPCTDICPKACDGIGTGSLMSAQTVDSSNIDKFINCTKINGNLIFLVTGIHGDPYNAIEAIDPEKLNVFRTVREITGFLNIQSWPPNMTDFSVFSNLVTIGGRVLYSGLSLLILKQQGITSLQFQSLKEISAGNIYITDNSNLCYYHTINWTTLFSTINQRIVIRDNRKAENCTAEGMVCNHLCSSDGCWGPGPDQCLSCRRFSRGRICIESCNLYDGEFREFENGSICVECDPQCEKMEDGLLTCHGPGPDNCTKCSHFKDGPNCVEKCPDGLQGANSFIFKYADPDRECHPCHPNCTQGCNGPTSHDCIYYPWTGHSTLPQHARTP

HER2-ECD = target: T2, HER2-ECD (human, UniProt P04626 23-652); test: as above
T2 construct: extracellular domain

BSA = target: T3, BSA (bovine, UniProt P02769); test: as above
T3 construct: also called bovine serum albumin

hEGFR-ECD = target: T4, hEGFR-ECD (human, UniProt P00533 25-645); test: phage solution binding competition ELISA as in Example 1, antigen in solution varied
T4 construct: extracellular domain

HER3-ECD-Fc [1] = target: T5, HER3-ECD-Fc (human, UniProt P21860 20-643, limits assumed); test: phage solution binding competition ELISA; experiment of paragraph 433 (compared with DL3.1-3.7)
T5 construct: extracellular domain; also called HER3-FC; HER3-IgG

HER3-ECD-Fc [2] = target: T5, HER3-ECD-Fc; test: phage solution binding competition ELISA as in Example 1, antigen in solution varied; experiment of paragraph 431 (compared with DL7 and DL11)

T3 sequence (P02769 25-607 limits assumed): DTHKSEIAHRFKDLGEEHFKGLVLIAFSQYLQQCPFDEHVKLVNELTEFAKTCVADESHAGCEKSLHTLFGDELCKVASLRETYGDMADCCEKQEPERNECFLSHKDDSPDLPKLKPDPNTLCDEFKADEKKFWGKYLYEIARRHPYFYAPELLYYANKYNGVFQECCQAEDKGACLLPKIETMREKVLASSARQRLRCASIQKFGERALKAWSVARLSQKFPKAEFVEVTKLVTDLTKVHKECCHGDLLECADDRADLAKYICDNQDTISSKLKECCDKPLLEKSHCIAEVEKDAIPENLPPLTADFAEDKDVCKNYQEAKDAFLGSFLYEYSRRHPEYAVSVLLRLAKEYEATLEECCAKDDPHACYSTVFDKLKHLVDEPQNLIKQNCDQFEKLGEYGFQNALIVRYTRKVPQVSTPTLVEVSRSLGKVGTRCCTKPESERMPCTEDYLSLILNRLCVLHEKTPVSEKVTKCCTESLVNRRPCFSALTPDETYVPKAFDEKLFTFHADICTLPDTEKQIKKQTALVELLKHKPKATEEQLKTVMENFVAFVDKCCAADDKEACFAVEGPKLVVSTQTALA

B1: D1.5-100 (phage-displayed Fab clone) (Fab, V domains shown)
VH: EVQLVESGGGLVQPGGSLRLSCAASGFTFTGNWIHWVRQAPGKGLEWVGEISPSGGYTDYADSVKGRFTISADTSKNTAYLQMNSLRAEDTAVYYCARESRVSYEAAMDYWGQGTLVTVSS
VL: DIQMTQSPSSLSASVGDRVTITCRASQDLATDVAWYQQKPGKAPKLLIYSASFLYSGVPSRFSGSGSGTDFTLTISSLQPEDFATYYCQQSEPEPYTFGQGTKVEIKR
notes: also called DL1.5-100
B1: no binding (HER4-ECD-Fc); no binding (HER2-ECD); no binding (BSA). It also gave an IC50 (hEGFR-ECD) of 44 nM, an IC50 (HER3-ECD-Fc [1]) of 4.6 nM and an IC50 (HER3-ECD-Fc [2]) of 0.1 nM.
